± gives the standard error. For some assays here: This sample holds only a part of the variants without activity.
B1: glmS ribozyme (parent)
chain: AUAAAAGCGCCAGAACUACAGAAAUGUAGUUGACGAGGAGGAGGUUUAUCGAAUUUUCGGCGGAUGCCUCCAAA

Columns and labels:
Settings in all cases: with glucosamine-6-phosphate
[1] = variants of: B1; assay: kcat; higher = faster cleavage; RNA array
Procedure, shortened: (§1)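 Over ~14 h at 37 °C, tiles were imaged as glucosamine-6-phosphate (40 μM to 10 mM) in HEPES/KCl/Mg(OAc)2 buffer flowed across sequenced MiSeq chips. The chips carried barcoded ribozyme variants transcribed in situ by E. coli RNA polymerase and tracked with a hybridised Cy3 probe. After normalisation to baseline and to non-cleaving reference variants, one- or two-exponential decay fits of per-tile medians gave kobs. kcat and KM followed from weighted Michaelis–Menten fits across concentrations.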

[2] = variants of: B1; assay: KM; higher = weaker cofactor use; RNA array
Procedure, shortened: as §1

[3] = variants of: B1; assay: self-cleavage kobs at 160 uM GlcN6P; higher = faster cleavage; RNA array
Procedure, shortened: as §1

[4] = variants of: B1; assay: self-cleavage kobs at 640 uM GlcN6P; higher = faster cleavage; RNA array
Procedure, shortened: as §1

[5] = variants of: B1; assay: self-cleavage kobs at 2500 uM GlcN6P; higher = faster cleavage; RNA array
Procedure, shortened: as §1

[6] = variants of: B1; assay: self-cleavage kobs at 10000 uM GlcN6P; higher = faster cleavage; RNA array
Procedure, shortened: as §1

[7] = variants of: B1; assay: self-cleavage kobs at 40 uM GlcN6P; higher = faster cleavage; RNA array
Procedure, shortened: as §1

AUAAAAGCGCCAGAACUACAGAAAUGUAGUUGACGAGGAGGAGGCUUAUCGAACUUUCGGCGGAUGCCUCCAAA [U45C U54C]
kcat [1]: 0.00224 ± 0.00051 s⁻¹
KM [2]: 2240 ± 770 µM
self-cleavage kobs at 160 uM GlcN6P [3]: 0.000142 ± 3.9e-05 s⁻¹
self-cleavage kobs at 640 uM GlcN6P [4]: 0.00057 ± 0.00012 s⁻¹
self-cleavage kobs at 2500 uM GlcN6P [5]: 0.00105 ± 0.00023 s⁻¹
self-cleavage kobs at 10000 uM GlcN6P [6]: 0.00213 ± 0.00063 s⁻¹

AUAAAAGCGCCAGAACUACAGAAAUGUAGUUGACGAGGAGGAGGUUUAUCGACUUUUCGACGGAUGCCUCCAAA [A53C G60A]
kcat [1]: 2.08e-05 ± 2.9e-06 s⁻¹
KM [2]: 7110 ± 2300 µM
self-cleavage kobs at 40 uM GlcN6P [7]: < 1e-05 s⁻¹
self-cleavage kobs at 160 uM GlcN6P [3]: < 1e-05 s⁻¹

AUAAAAGCGCCAGAACUACAGAAAUGUAGUUGACGAGGAGGAGGUUUAUCGAAUUUUGGUCGGAUGCCUCCAAA [C58G G60U]
kcat [1]: < 1e-05 s⁻¹
self-cleavage kobs at 40 uM GlcN6P [7]: < 1e-05 s⁻¹
self-cleavage kobs at 160 uM GlcN6P [3]: < 1e-05 s⁻¹
self-cleavage kobs at 640 uM GlcN6P [4]: < 1e-05 s⁻¹
self-cleavage kobs at 2500 uM GlcN6P [5]: < 1e-05 s⁻¹

AUAAAAGCGCCAGAACUACAGAAAUGUAGUUGACGAGGAGGAGGAUUAUCGAAUUUUCGGCGGAUUCCUCCAAA [U45A G66U]
kcat [1]: 0.00194 ± 0.00019 s⁻¹
KM [2]: 2090 ± 330 µM
self-cleavage kobs at 40 uM GlcN6P [7]: 4.15e-05 ± 1.3e-05 s⁻¹
self-cleavage kobs at 160 uM GlcN6P [3]: 0.000117 ± 3.4e-05 s⁻¹
self-cleavage kobs at 640 uM GlcN6P [4]: 0.000508 ± 0.0001 s⁻¹
self-cleavage kobs at 2500 uM GlcN6P [5]: 0.00104 ± 0.00022 s⁻¹
self-cleavage kobs at 10000 uM GlcN6P [6]: 0.0016 ± 0.00026 s⁻¹

AUAAAAGCGCCAGAACUACAGAAAUGUAGUUGACGAGGAGGAGGUUUAUCGAAUUUACGGCGGAUGCGUCCAAA [U57A C68G]
kcat [1]: 3.34e-05 ± 1.3e-05 s⁻¹
self-cleavage kobs at 640 uM GlcN6P [4]: 6.21e-05 ± 1.7e-05 s⁻¹
self-cleavage kobs at 2500 uM GlcN6P [5]: 4.55e-05 ± 1.7e-05 s⁻¹

AUAAAAGCGCCAGAACUACAGAAAUGUAGUUGACGAGGAGGAGGUUUAUCGAAUUUUAGGCGGAUGCAUCCAAA [C58A C68A]
kcat [1]: 3.68e-05 ± 1.1e-05 s⁻¹
self-cleavage kobs at 160 uM GlcN6P [3]: 4.01e-05 ± 1.7e-05 s⁻¹
self-cleavage kobs at 640 uM GlcN6P [4]: 5.26e-05 ± 1.6e-05 s⁻¹
self-cleavage kobs at 2500 uM GlcN6P [5]: 3.75e-05 ± 1.7e-05 s⁻¹

AUAAAAGCGCCAGUACUACAGAAAUGUAGUUGACGAGGAGGAGGUUUAUCGAAUUUCCGGCGGAUGCCUCCAAA [A14U U57C]
kcat [1]: 7.65e-05 ± 1.4e-05 s⁻¹
self-cleavage kobs at 2500 uM GlcN6P [5]: 5.75e-05 ± 1.1e-05 s⁻¹
self-cleavage kobs at 10000 uM GlcN6P [6]: 6.38e-05 ± 1.2e-05 s⁻¹

AUAAAAGCGCCAGAACUACAGAAAUGUAGUUGACGAGGAGGAGGUAUAUCGAAGUUUCGGCGGAUGCCUGCAAA [U46A U54G C70G]
kcat [1]: 0.000171 ± 6e-05 s⁻¹
self-cleavage kobs at 160 uM GlcN6P [3]: 6.23e-05 ± 2e-05 s⁻¹
self-cleavage kobs at 640 uM GlcN6P [4]: 0.000291 ± 6.7e-05 s⁻¹
self-cleavage kobs at 2500 uM GlcN6P [5]: 0.000305 ± 6.4e-05 s⁻¹
self-cleavage kobs at 10000 uM GlcN6P [6]: 0.000127 ± 2.9e-05 s⁻¹

AUAAAAGCGCCAGAAUUACAGAAAUGUAGUUGACGAGGAGGAGGUUUAUCGAAUUUUCGGCGGAUCUCUCCAAA [C16U G66C C67U]
kcat [1]: 3.45e-05 ± 4.4e-06 s⁻¹
